Test results taken from PMC3962490, “The Yeast Ess1 Prolyl Isomerase Controls Swi6 and Whi5 Nuclear Localization” (G3: Genes|Genomes|Genetics, 2014).

Target: all the peptides, including the phosphorylated CTD peptide
Assay: BLI; Octet RED, 24°; N-terminally biotinylated peptides immobilised on streptavidin biosensors; Ess1 in solution (3, 10, 30 μM); 20 mM Tris-HCl pH 8.0, 1 mg/mL BSA; no-peptide sensor subtracted; apparent dissociation constants (Kapp) from kinetic and equilibrium data, considering only the predominant faster-dissociating signal; for unphosphorylated peptides Kapp estimated from the signal at 30 μM Ess1

B1: Recombinant S. cerevisiae Ess1 protein (enzyme)
chain: MPSDVASRTGLPTPWTVRYSKSKKREYFFNPETKHSQWEEPEGTNKDQLHKHLRDHPVRVRCLHILIKHKDSRRPASHRSENITISKQDATDELKTLITRLDDDSKTNSFEALAKERSDCSSYKRGGDLGWFGRGEMQPSFEDAAFQLKVGEVSDIVESGSGVHVIKRVG
**Q.** With B1 as the binder, how does the kon read?
**A.** Its kon is 17500 to 27100 M⁻¹ s⁻¹.
